Laboratory results published in article PMC4500674 (Archives of biochemistry and biophysics, 2015).

Target: T1, human Mia40, wild type, short linker form (human, UniProt Q8N4Q1 1-142)
T1 sequence: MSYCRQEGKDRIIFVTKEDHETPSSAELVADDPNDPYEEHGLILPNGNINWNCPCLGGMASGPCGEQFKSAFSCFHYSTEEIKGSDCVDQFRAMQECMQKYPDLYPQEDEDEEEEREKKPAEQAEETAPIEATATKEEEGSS
Assay: stopped-flow fluorescence kinetics

Kd: 10.4 ± 0.2 µM
B1: reduced bovine pancreatic ribonuclease A (natural protein, UniProt P61823 27-150, looked up)
chain: KETAAAKFERQHMDSSTSAASSSNYCNQMMKSRNLTKDRCKPVNTFVHESLADVQAVCSQKNVACKNGQTNCYQSYSTMSITDCRETGSSKYPNCAYKTTQANKHIIVACEGNPYVPVHFDASV
